Consider six molecules from article PMC7804152, “Structural basis for the multi-activity factor Rad5 in replication stress tolerance”.

Data set [1] deals with T1, KlRad5 (Kluyveromyces lactis, UniProt Q6CJM4 163-1114).
T1 sequence: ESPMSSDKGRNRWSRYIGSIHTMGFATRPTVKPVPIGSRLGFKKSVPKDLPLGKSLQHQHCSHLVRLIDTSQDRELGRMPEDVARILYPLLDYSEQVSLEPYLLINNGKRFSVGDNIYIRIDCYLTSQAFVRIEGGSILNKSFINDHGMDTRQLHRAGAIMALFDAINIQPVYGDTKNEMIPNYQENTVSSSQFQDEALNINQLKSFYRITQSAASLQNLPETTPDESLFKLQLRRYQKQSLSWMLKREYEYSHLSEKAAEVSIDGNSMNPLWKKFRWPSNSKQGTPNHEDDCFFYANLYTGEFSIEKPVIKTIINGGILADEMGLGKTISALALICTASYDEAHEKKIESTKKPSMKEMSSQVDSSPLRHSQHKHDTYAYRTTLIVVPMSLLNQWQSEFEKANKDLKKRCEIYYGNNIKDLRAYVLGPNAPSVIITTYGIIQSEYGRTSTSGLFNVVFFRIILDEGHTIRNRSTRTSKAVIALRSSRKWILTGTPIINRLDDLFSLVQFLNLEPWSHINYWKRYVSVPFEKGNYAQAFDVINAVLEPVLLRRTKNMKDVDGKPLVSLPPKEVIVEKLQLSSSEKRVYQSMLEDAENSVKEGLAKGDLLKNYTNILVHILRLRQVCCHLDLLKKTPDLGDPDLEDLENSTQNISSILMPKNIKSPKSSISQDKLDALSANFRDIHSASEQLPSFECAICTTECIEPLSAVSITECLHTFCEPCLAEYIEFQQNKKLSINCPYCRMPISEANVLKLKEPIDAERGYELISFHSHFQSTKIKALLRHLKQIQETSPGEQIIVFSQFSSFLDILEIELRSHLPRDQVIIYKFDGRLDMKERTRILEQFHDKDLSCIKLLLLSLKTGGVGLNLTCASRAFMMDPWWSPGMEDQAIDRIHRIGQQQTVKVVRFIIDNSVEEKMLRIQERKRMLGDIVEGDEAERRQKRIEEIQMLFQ
Kind of data set: fluorescence polarization; 50 mM NaCl; high affinity, Kd only in figure; FP: 20 mM Tris pH 7.5, 50 mM (dsDNA, KlHIRAN) or 70 mM (ssDNA) NaCl, 2 mM MgCl2, 1 nM DNA, room temp; EMSA: 20 mM Tris pH 7.5, 100 mM KCl, 0.5 mM DTT, 3% glycerol, 2 mM MgCl2, 250 ug/mL BSA, 4 C; pull-down: 20 mM Tris pH 7.5, 50 mM NaCl, 4 C. Particulars: protein: recombinant; tags: none; label: 5'-FAM; blunt. In general terms: Polarisation of emitted light reports the rotation of a fluorescent probe.

For another data set, the target named is T2, His-KlRad5 (Kluyveromyces lactis, UniProt Q6CJM4 163-1114).
T2 sequence: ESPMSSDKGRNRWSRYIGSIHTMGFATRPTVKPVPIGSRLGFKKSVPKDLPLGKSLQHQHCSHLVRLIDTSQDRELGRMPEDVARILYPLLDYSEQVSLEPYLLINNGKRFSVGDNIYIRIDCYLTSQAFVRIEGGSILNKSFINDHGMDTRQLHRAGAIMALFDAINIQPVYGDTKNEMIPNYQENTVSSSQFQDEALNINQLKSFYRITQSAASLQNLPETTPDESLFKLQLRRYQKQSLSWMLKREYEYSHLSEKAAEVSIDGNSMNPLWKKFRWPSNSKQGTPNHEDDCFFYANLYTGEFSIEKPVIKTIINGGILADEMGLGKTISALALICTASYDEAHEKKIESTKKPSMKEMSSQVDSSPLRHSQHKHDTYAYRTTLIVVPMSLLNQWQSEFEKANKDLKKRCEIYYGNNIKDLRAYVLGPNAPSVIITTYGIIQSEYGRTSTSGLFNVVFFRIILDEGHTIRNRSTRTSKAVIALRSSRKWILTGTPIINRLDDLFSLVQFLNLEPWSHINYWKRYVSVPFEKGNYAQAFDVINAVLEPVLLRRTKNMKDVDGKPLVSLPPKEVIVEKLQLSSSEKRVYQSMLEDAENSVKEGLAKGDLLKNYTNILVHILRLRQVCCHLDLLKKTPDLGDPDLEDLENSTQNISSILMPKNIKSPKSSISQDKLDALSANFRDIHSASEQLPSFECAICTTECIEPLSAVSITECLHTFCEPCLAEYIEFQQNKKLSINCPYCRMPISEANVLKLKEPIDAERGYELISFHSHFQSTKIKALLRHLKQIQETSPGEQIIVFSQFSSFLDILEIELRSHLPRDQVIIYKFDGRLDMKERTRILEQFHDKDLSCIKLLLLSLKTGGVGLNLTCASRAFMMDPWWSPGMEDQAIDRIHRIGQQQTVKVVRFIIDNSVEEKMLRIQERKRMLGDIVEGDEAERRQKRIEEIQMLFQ
Kind of data set: fluorescence polarization; FP: 20 mM Tris pH 7.5, 50 mM (dsDNA, KlHIRAN) or 70 mM (ssDNA) NaCl, 2 mM MgCl2, 1 nM DNA, room temp; EMSA: 20 mM Tris pH 7.5, 100 mM KCl, 0.5 mM DTT, 3% glycerol, 2 mM MgCl2, 250 ug/mL BSA, 4 C; pull-down: 20 mM Tris pH 7.5, 50 mM NaCl, 4 C. Particulars: protein: recombinant; tags: N-terminal His6; label: 5'-FAM; blunt.

Another data set has as its target T3, KlHIRAN (Kluyveromyces lactis, UniProt Q6CJM4 174-341).
T3 sequence: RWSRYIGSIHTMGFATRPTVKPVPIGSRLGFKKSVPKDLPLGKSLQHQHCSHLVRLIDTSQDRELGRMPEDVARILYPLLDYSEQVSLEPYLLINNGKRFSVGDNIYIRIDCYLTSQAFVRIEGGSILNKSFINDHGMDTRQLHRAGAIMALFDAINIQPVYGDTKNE
Kind of data set: fluorescence polarization; 50 mM NaCl; stronger than blunt dsDNA; FP: 20 mM Tris pH 7.5, 50 mM (dsDNA, KlHIRAN) or 70 mM (ssDNA) NaCl, 2 mM MgCl2, 1 nM DNA, room temp; EMSA: 20 mM Tris pH 7.5, 100 mM KCl, 0.5 mM DTT, 3% glycerol, 2 mM MgCl2, 250 ug/mL BSA, 4 C; pull-down: 20 mM Tris pH 7.5, 50 mM NaCl, 4 C. The following applies: protein: recombinant, tags: intein-CBD cleaved off.

The target in data set [2] is T1, KlRad5. Kind of data set: pull-down; 50 mM NaCl; FP: 20 mM Tris pH 7.5, 50 mM (dsDNA, KlHIRAN) or 70 mM (ssDNA) NaCl, 2 mM MgCl2, 1 nM DNA, room temp; EMSA: 20 mM Tris pH 7.5, 100 mM KCl, 0.5 mM DTT, 3% glycerol, 2 mM MgCl2, 250 ug/mL BSA, 4 C; pull-down: 20 mM Tris pH 7.5, 50 mM NaCl, 4 C. Particulars: protein: recombinant; tags: none; label: 5'-biotin; blunt, self-annealing, 2 copies of D1.

Data set [3] addresses T1, KlRad5. The data set is described as follows: hydrogen-deuterium exchange MS; 200 mM NaCl; protection of 548-554, 684-700, 1039-1049, 1081-1092; FP: 20 mM Tris pH 7.5, 50 mM (dsDNA, KlHIRAN) or 70 mM (ssDNA) NaCl, 2 mM MgCl2, 1 nM DNA, room temp; EMSA: 20 mM Tris pH 7.5, 100 mM KCl, 0.5 mM DTT, 3% glycerol, 2 mM MgCl2, 250 ug/mL BSA, 4 C; pull-down: 20 mM Tris pH 7.5, 50 mM NaCl, 4 C. The following applies: protein: recombinant; tags: none; blunt, self-annealing, 2 copies of D1.

B1: D2a/D2b dsDNA (dsDNA)
DNA 1: ACCAGTGCCAGTGAT
DNA 2: ATCACTGGCACTGGT
As for B1, the binding result with KlRad5 [1] and with His-KlRad5 was “binds” throughout.

B2: D3a ssDNA (ssDNA)
DNA: CAACGTCATAGACGATTACATTGCTACATGGAGCTGTCTAGAGGATCCGA
Take B2: in the data set with KlHIRAN (label: 5'-FAM), the binding result is “binds”.

B3: D3a/D3d 3'-overhang dsDNA (dsDNA)
DNA 1: CAACGTCATAGACGATTACATTGCTACATGGAGCTGTCTAGAGGATCCGA
DNA 2: AGCAATGTAATCGTCTATGACGTTG
Consider B3, for which the binding result with KlHIRAN (label: 3'-FAM on D3a, 3' overhang 25 nt (D3a)) was “binds”.

B4: D3a/D3c 5'-overhang dsDNA (dsDNA)
DNA 1: CAACGTCATAGACGATTACATTGCTACATGGAGCTGTCTAGAGGATCCGA
DNA 2: TCGGATCCTCTAGACAGCTCCATGT
As for B4, in the data set with KlHIRAN (label: 5'-FAM on D3a, 5' overhang 25 nt (D3a)), the binding result is listed as “binds”.

B5: D1 dsDNA, 5'-biotin (dsDNA)
DNA 1: TCGGATCCTCTAGACAGCTCCATGCATGGAGCTGTCTAGAGGATCCGA
DNA 2: TCGGATCCTCTAGACAGCTCCATGCATGGAGCTGTCTAGAGGATCCGA
For the molecule B5, the binding result with KlRad5 [2] is “binds”.

B6: D1 dsDNA, unlabelled (dsDNA)
DNA 1: TCGGATCCTCTAGACAGCTCCATGCATGGAGCTGTCTAGAGGATCCGA
DNA 2: TCGGATCCTCTAGACAGCTCCATGCATGGAGCTGTCTAGAGGATCCGA
Consider B6, for which the binding result in the data set with KlRad5 [3] is “binds”.
